Usually stoichiometry N stands for the number of molecules, sites or subunits per partner or assembly.

The target of series [1] is human Prx2-based FRET probe (Clover-Prx2-mRuby2) (human). As to the kind of experiment: non-reducing SDS-PAGE with immunoblot; HeLa cells with or without the probe, treated with H2O2 (also auranofin or piperlongumine); free thiols blocked with 100 mM MMTS; 1% Triton X-100 lysate; SDS-PAGE without beta-mercaptoethanol; blot for Prx2 or GFP; disulfide-linked dimers. Background: A western blot detects proteins with antibodies after separation by electrophoresis.

Series [2] concerns the molecule itself. The series is described as above.

In turn, “human Prx2-based FRET probe (Clover-Prx2-mRuby2)” came in with a stoichiometry N in series [1] of 2.

B1: human peroxiredoxin-2 (endogenous) (natural protein, human (endogenous in HeLa), UniProt P32119 1-198, looked up)
chain: MASGNARIGKPAPDFKATAVVDGAFKEVKLSDYKGKYVVLFFYPLDFTFVCPTEIIAFSNRAEDFRKLGCEVLGVSVDSQFTHLAWINTPRKEGGLGPLNIPLLADVTRRLSEDYGVLKTDEGIAYRGLFIIDGKGVLRQITVNDLPVGRSVDEALRLVQAFQYTDEHGEVCPAGWKPGSDTIKPNVDDSKEYFSKHN
notes: peroxiredoxin-2 (Prx2), human, endogenous in HeLa cells; monomer band at 21 kDa; the dimer seen on non-reducing SDS-PAGE is linked by a disulfide between the catalytic and the resolving cysteine of two monomers; also called Prx2; endogenous Prx2; source: endogenous, HeLa lysate
Turning to B1, the “stoichiometry N” value in series [2] was found to be 2.

Source of the values: PMC6081480, “Monitoring the action of redox-directed cancer therapeutics using a human peroxiredoxin-2-based probe” (Nature Communications, 2018).
